Reference: patent publication US20240067758A1 (UCB, published 2024)

Experiments:
Human IL22 [1] = target: T1, Human IL22 (human, UniProt Q9GZX6 34-179); test: SPR; sample stressed 2 weeks at 37 °C, pH 8.0 (Asn95 of light chain CDR3 >40% deamidated)
T1 construct: IL22 of the Biacore and cell assays
T1 sequence: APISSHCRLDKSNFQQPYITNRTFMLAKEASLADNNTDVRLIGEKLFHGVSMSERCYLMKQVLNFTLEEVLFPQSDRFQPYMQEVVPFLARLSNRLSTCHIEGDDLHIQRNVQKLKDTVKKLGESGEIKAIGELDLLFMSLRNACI

Human IL22 [2] = target: T1, Human IL22; test: cell-based or functional assay
Human IL22 [3] = target: T1, Human IL22; test: SPR Biacore T200; TrYbe captured on anti-human F(ab')2, analyte 10-0.3125 nM; mean KD
Description: (§1) BIA (Biomolecular Interaction Analysis) was performed using T200 (GE Healthcare). Affinipure IgG-F(ab′)₂ Fragment goat anti-human IgG, F(ab′)₂ fragment specific (Jackson ImmunoResearch) was immobilized on a CM5 Sensor Chip via amine coupling chemistry to a capture level of ˜5000 response units (RUs). HBS-EP+buffer (10 mM HEPES pH 7.4, 0.15 M NaCl, 3 mM EDTA, 0.05% Surfactant P20, GE Healthcare) was used as the running buffer with a flow rate of 10 μL/min.
(§2) The surface was generated by 2×10 μL injections of 50 mM HCl, interspersed by a 10 μL injection of 5 mM NaOH at flowrate of 10 μL/min. Background subtraction binding curves were analyzed using the T200 evaluation software (version 3.0) following standard procedures. Kinetic parameters were determined from the fitting algorithm.

Human IL13 [4] = target: T2, Human IL13 (human, UniProt P35225 35-146, limits assumed); test: as above
Description: as §1, §2

Cynomolgus IL22 = target: T3, Cynomolgus IL22 (cynomolgus, UniProt G7PHZ7 34-179); test: as above
T3 construct: also called Cyno IL22; Cyno IL-22
T3 sequence: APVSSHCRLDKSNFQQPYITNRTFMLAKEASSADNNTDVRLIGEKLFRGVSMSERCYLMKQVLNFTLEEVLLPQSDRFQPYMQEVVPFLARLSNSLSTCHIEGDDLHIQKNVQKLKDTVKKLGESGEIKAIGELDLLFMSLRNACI
Description: as §1, §2

Mouse IL22 = target: T4, Mouse IL22 (mouse, UniProt Q9JJY9 34-179); test: as above
T4 sequence (looked up): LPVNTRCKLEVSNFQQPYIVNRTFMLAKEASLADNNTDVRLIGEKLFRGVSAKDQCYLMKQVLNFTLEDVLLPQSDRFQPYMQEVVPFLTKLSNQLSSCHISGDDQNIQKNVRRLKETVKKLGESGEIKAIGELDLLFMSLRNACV
Description: as §1, §2

Cynomolgus IL13 = target: T5, Cynomolgus IL13 (cynomolgus, UniProt Q0PW92 21-132); test: as above
T5 construct: also called Cyno IL-13
Description: as §1, §2

Mouse Albumin = Mouse Albumin (mouse, UniProt P07724 25-608); test: SPR Biacore T200; TrYbe captured on anti-human F(ab')2, analyte 100-3 nM; mean KD
Description: as §1, §2

Cynomolgus Albumin = target: T6, Cynomolgus Albumin (cynomolgus, UniProt A2V9Z4 25-608); test: as above
T6 construct: also called Cyno Albumin
Description: as §1, §2

Human Albumin = target: T7, Human Albumin (human, UniProt P02768 25-609); test: as above
T7 construct: also called human serum albumin; HSA
Description: as §1, §2

Mouse IL13 = target: T8, Mouse IL13 (mouse, UniProt P20109 26-131, limits assumed); test: SPR Biacore T200; TrYbe captured on anti-human F(ab')2, mouse IL13 titrated
T8 sequence (looked up): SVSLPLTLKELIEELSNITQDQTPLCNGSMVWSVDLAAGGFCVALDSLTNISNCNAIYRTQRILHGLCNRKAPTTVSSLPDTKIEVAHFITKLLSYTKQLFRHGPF

Human IL13 [5] = target: T2, Human IL13; test: cell-based or functional assay
Human IL22 [6] = target: T1, Human IL22; test: SPR; non-stressed T0 sample of the deamidation stress study

Kd (Human IL22 [1]): 0.03 nM
koff (Human IL22 [1]): 3.2e-05 s⁻¹
kon (Human IL22 [1]): 1.1e+06 M⁻¹ s⁻¹
IC50 (M) Geomean; IL22-induced IL-10 release, COLO205 cells; batch PB7916 (N = 4) (Human IL22 [2]): 3.4e-11 M
IC50 (M) Geomean; IL22-induced IL-10 release, COLO205 cells; batch PB8056 (N = 4) (Human IL22 [2]): 3.66e-11 M
Kd (Human IL22 [3]): < 0.1 nM
Kd (Human IL13 [4]): < 0.1 nM
Kd (Cynomolgus IL22): < 0.1 nM
Kd (Mouse IL22): 14 to 25 nM
Kd (Cynomolgus IL13): < 0.25 nM
Kd (Mouse Albumin): 5 to 6 nM
Kd (Cynomolgus Albumin): 1 to 3 nM
Kd (Human Albumin): 1 to 3 nM
binding result (Mouse IL13): no binding (tested: 10 nM to 0.3125 nM)
IC50 (read off the curve), inhibition of eotaxin-3 secretion, primary human keratinocytes stimulated with IL-13 and IL-22 at 100 ng/ml (Human IL13 [5]): ~6 nM
Kd (Human IL22 [6]): 0.026 nM
koff (Human IL22 [6]): 3.1e-05 s⁻¹
kon (Human IL22 [6]): 1.2e+06 M⁻¹ s⁻¹
B1: IL13/IL22 TrYbe (other)
heavy: EVQLVESGGGLVQPGGSLRLSCAVSGFSLSSYAMIWVRQAPGKGLEWIGIIDIEGSTYYASWAKGRFTISRDNSKNTVYLQMNSLRAEDTAVYYCARDRFVGVDIFDPWGQGTLVTVSSASTKGPSVFPLAPSSKSTSGGTAALGCLVKDYFPEPVTVSWNSGALTSGVHTFPAVLQSSGLYSLSSVVTVPSSSLGTQTYICNVNHKPSNTKVDKKVEPKSCSGGGGSGGGGSEVQLLESGGGLVQPGGSLRLSCAVSGIDLSNYAINWVRQAPGKCLEWIGIIWASGTTFYATWAKGRFTISRDNSKNTVYLQMNSLRAEDTAVYYCARTVPGYSTAPYFDLWGQGTLVTVSSGGGGSGGGGSGGGGSGGGGSDIQMTQSPSSVSASVGDRVTITCQSSPSVWSNFLSWYQQKPGKAPKLLIYEASKLTSGVPSRFSGSGSGTDFTLTISSLQPEDFATYYCGGGYSSISDTTFGCGTKVEIKRT
light: AVQLTQSPSSLSASVGDRVTITCQASEDIYTNLAWYQQKPGKAPKLLIYWASTLASGVPSRFSGSGSGTDFTLTISSLQPEDFATYYCQASVYGNAADSRYTFGGGTKVEIKRTVAAPSVFIFPPSDEQLKSGTASVVCLLNNFYPREAKVQWKVDNALQSGNSQESVTEQDSKDSTYSLSSTLTLSKADYEKHKVYACEVTHQGLSSPVTKSFNRGECSGGGGSGGGGSEVQLVQSGAEVKKPGSSVKVSCKASGYSFTSYYIHWVRQAPGQCLEWMGRIGPGSGDINYNEKFKGRATFTVDKSTSTAYMELSSLRSEDTAVYYCARFHYDGADWGQGTLVTVSSGGGGSGGGGSGGGGSGGGGSDIQMTQSPSSLSASVGDRVTITCKASQNINENLDWYQQKPGKAPKLLIYYTDILQTGIPSRFSGSGSGTDYTLTISSLQPEDFATYYCYQYYSGYTFGCGTKLEIKRT
notes: also called batches PB8056 and PB7916
